From patent publication US7968692B2, “Elongase genes and uses thereof” (Abbott Laboratories, priority 1998, dated 2011) come the findings set out here.

Type in all cases: cell-based, Saccharomyces cerevisiae
In data set [1] the test system is S. cerevisiae 334. The data set can be described thus: C. elegans elongase CEELO1 activity in yeast. The procedure:
The plasmids pRET-21 and -22 were transformed into S. cerevisiae 334 as previously described (see Example III) and the resulting yeast cultures (334(pRET-21) and 334(pRET-22)) grown in 100 ml of selective media without leucine (Ausubel et al, supra) for 48 hours at 20° C. in the presence of 50 μM GLA and AA. […] The percent conversion of GLA to DGLA by 334(pRET-21) and 334(pRET-22) was 11.1% and 19.4% respectively with an average of 15.25%.
To further confirm the GLA elongation activity of CEELO1, the experiment described in the paragraphs above was repeated with the exception that GLA and AA were added to cultures of 334(pRET-22) separately. […] In this case, the percent conversion appears to be double that described in previous results (see FIG. 48) and may either be due to the absence of the additional substrate (AA) or the subculturing of the yeast.
Additionally, to further determine the substrate specificity of CEELO1, 50 μM of each substrate besides GLA (e.g., SA (18:0), OA (18:1), LA (18:2n-6), DGLA (20:3n-g), AA ([…]), ADA (22:4n-6), ALA (18:3n-3), PA ([…]), EPA (20:5n-3) and STA ([…])) was added individually to cultures of 334(pRET-22) and grown for 48 hours at 20° C., as described in Example XVII. […] The CEELO1 elongated 13% of STA incorporated to ETA (20:4n-3)(see FIG. 62).

In data set [2] the test system is yeast. The data set can be described thus: Co-expression of CEELO1 and M. alpina Δ5 desaturase in yeast. The settings on record: pRET22 and pCGR4 co-expressed, FIG. 63. The procedure: Parallel to Examples III and XI, the C. elegans CEELO1 gene in the plasmid pRET22 and M. alpina Δ5 desaturase (pCGR-4; see Example III) were co-expressed in yeast to determine if AA or EPA could be produced from exogenously added GLA or STA, respectively. When a yeast culture containing both pRET22 and pCGR4 plasmids was grown in the presence of 50 μM GLA or STA in media lacking leucine and uracil, the percent conversion to the final products of AA and EPA, respectively, appeared identical (27% conversion)(see FIG. 63). Thus, simultaneous heterologous expression of CEEL01 and a Δ5 desaturase results in the biosynthesis of AA and EPA from GLA and STA, respectively in yeast.

Data set [3] relates to S. cerevisiae 334. The data set can be described thus: Comparison of MAELO and S. cerevisiae ELO2 PUFA elongase activity in baker's yeast. The settings on record: 25 μM GLA. From the text:
The ELO2 gene encoding for the yeast elongase was cloned from an S. cerevisiae genomic library (Origene, Rockville, Md.) using the primers RO514 (SEQ ID NO: 94) (5′-GGCTATGGATCCATGAATTCACTCGTTACTCAATATG-3′) and RO515 (SEQ ID NO: 95)(5′-CCTGCCAAGCTTTTACCTTTTTCTTCTGTGTTGAG-3′) incorporating the restriction sites (underlined) BamHI and HindIII (respectively). The ELO2 gene was cloned into the vector pYX242 at the BamHI and HindIII sites, designated pRELO, transformed into the S. cerevisiae host 334 (Hoveland et al., supra) and screened for PUFA elongase activity. The vector plasmid was used as a negative control and 334(pRAE-5) was grown to compare the PUFA elongase activity. The cultures were grown as previously described with no galactose in the media and 25 μM GLA added as a substrate. […] Additionally, when DGLA produced is expressed as a percent of the total lipids (shown in parenthesis, FIG. 12), the clones 334(pRELO-1) and 334 (pRELO-2) produced 0.153% and 0.2% DGLA respectively, while 334(pYX242) produced 0.185% DGLA. […] The M. alpina PUFA elongase activity is specific for this conversion as evidenced by the higher amount of DGLA produced compared to the control, 334(pYX242).

In data set [4] the test system is S. cerevisiae 334. Briefly: Expression of M. alpina elongase (MAELO) cDNA in baker's yeast, GC-FAME analysis of lipid fraction. The settings on record: substrate GLA; 40-48 hours at 25° C. From the text: The constructs pRAE-5, and pRAE-6 were transformed into S. cerevisiae 334 (Hoveland et al., Gene 83:57-64 (1989)) and screened for elongase activity. The plasmid pCGN7875 (Calgene LLC, Davis, Calif.) containing jojoba KCS gene in pYES2 vector (Invitrogen Corp., Carlsbad, Calif.) was used as a positive control. The substrate used to detect elongase activity in M. alpina elongase (MAELO) was GLA and that in jojoba KCS was oleic acid (OA). The negative control strain was S. cerevisiae 334 containing pYX242 vector. The cultures were grown for 40-48 hours at 25° C., in selective media (Ausubel et al., Short Protocols in Molecular Biology, Ch. 13, p. 3-5 (1992)), in the presence of a particular substrate. The expression of the jojoba KCS gene cloned in pYES2 was under the control of GAL1 promoter, while the promoter in pYX242 is TP1, which is constitutive. […] The GC-FAME analysis of the lipid fraction of each cell pellet was performed as previously described (Knutzon et al., supra).
The jojoba KCS elongates long chain monounsaturated fatty acids 18:1n-9 to 20:1n-9. […] The activity of the M. alpina elongase, elongation (MAELO) of long chain monounsaturated and saturated fatty acids, is seen in the conversion of 18:1n-9 to 20:1n-9 and also in the synthesis of 24:0. The control strain, 334(pYX242) has very little or no detectable amount of 20:1 and 24:0 (see FIG. 10A). […]

Data set [5] deals with S. cerevisiae 334. Briefly: MAELO co-expressed with Δ5-desaturase (pCGR-4) in yeast, AA production. The settings on record: 25 μM GLA; pRAE-5 and pCGR-4 co-transformed; FIG. 11. The protocol:
Once 20:3n-6 is generated by the M. alpina elongase (MAELO), the Δ5-desaturase can convert it to AA in the desired expression system. To test this hypothesis, the constructs pRAE-5 and pCGR-4 (a Δ5-desaturase containing plasmid) were co-transformed into S. cerevisiae 334 and screened for AA production. The substrate used was 25 μM GLA (18:3n-6). If the M. alpina elongase (MAELO) is active in yeast, then the substrate will be converted to DGLA(20:3n-6), which the Δ5-desaturase will convert to AA(20:4n-6).

The test system of data set [6] is SC334. The data set can be described thus: MAD (M. alpina direct) cDNA expression library screening in yeast, GLA to DGLA. The protocol:
To screen the library, the glycerol stocks were thawed and approximately 0.5 ml was added to 5 ml of liquid selective media lacking uracil (Ausubel et al., supra) and grown at 30° C. for 24 hours. The culture was then transferred into 50 ml of liquid selective medium lacking uracil with 2% galactose and 25 (D)M GLA (substrate for the elongase enzyme) for 24 hours at 25° C. with shaking. The GC-FAME analysis of the lipid content in the cell pellet of each induced culture was performed as previously described (Knutzon et al., supra). The MAELO (pRAE-5 in pYX242 grown in selective media lacking leucine) was used as a positive control in each batch run. MAELO had consistently been able to convert 1.5% of GLA to DGLA (see Example III).
After screening and analyzing approximately 750 individual pools by GC-FAME analysis, as described in Example VIII, one pool of five colonies (i.e., MAD708) appeared to have significant enzymatic activity in converting GLA to DGLA. […] This pool was tested again under identical assay conditions to confirm the initial findings. […] Since MAD708 was a pool of five different clones, it was necessary to isolate the individual cDNA clone which encoded for elongase activity from this pool. To do this, the original MAD708 glycerol stock was plated onto a selective media agar plate lacking uracil (Ausubel et al., supra). […]

Where [7] appears, read: 50 μM GLA and AA together, 48 hours at 20° C., FIG. 48.
The mark [8] stands for this setting: GLA and AA added separately, FIG. 61.

B1: CEELO1: C. elegans elongase (SEQ ID NO:4), 288 amino acids, expressed in yeast from pRET-22 (protein)
chain: MAQHPLVQRLLDVKFDTKRFVAIATHGPKNFPDAEGRKFFADHFDVTIQASILYMVVVFGTKWFMRNRQPFQLTIPLNIWNFILAAFSIAGAVKMTPEFFGTIANKGIVASYCKVFDFTKGENGYWVWLFMASKLFELVDTIFLVLRKRPLMFLHWYHHILTMIYAWYSHPLTPGFNRYGIYLNFVVHAFMYSYYFLRSMKIRVPGFIAQAITSLQIVQFIISCAVLAHLGYLMHFTNANCDFEPSVFKLAVFMDTTYLALFVNFFLQSYVLRGGKDKYKAVPKKKNN
modifications: Caenorhabditis elegans
Turning to B1, in data set [1] (setting [7]), the “DGLA, average of the total lipid in the two samples” value turned out to be 1.79% and the “percent conversion of GLA to DGLA” value was 19.4%. The “elongation of AA or any endogenous fatty acid” value in data set [1] (50 μM GLA and AA together, FIG. 48) is given as “almost no elongation”. In data set [1] (50 μM STA, 48 hours at 20° C., FIG. 62), the “STA incorporated elongated to ETA (20:4n-3)” value came out at 13%. Also, the “elongation of other exogenously added substrates (SA, OA, LA, DGLA, AA, ADA, ALA, PA, EPA, STA)” value in data set [1] (50 μM of each substrate individually, FIG. 62) was “STA was the only exogenously added substrate that was elongated”. Moreover, in data set [1] (setting [8]), the “conversion rate of GLA to DGLA” value is listed as 38.2% and the “elongation activity of AA” value is given as “No elongation activity of AA was detected”. The “average percent conversion of GLA to DGLA” value in data set [1] (average of 334(pRET-21) and 334(pRET-22), 50 μM GLA and AA together) amounted to 15.25%. Besides, the “conversion rate of endogenous 16:1n-7 to 18:1n-7” value in data set [1] (endogenous substrate) amounted to 9.12%. The “percent conversion of GLA to final product AA” value in data set [2] (50 μM GLA) stood at 27%. Moreover, in data set [2] (50 μM STA), the “percent conversion of STA to final product EPA” value is reported as 27%.

B2: MAELO: Mortierella alpina elongase encoded by MAELO cDNA (SEQ ID NO:1), expressed in S. cerevisiae 334 from pRAE-5 (protein, listed as Mortierella alpina)
chain: MAAAILDKVNFGIDQPFGIKLDTYFAQAYELVTGKSIDSFVFQEGVTPLSTQREVAMWTITYFVVIFGGRQIMKSQDAFKLKPLFILHNFLLTIASGSLLLLFIENLVPILARNGLFYAICDDGAWTQRLELLYYLNYLVKYWELADTVFLVLKKKPLEFLHYFHHSMTMVLCFVQLGGYTSVSWVPITLNLTVHVFMYYYYMRSAAGVRIWWKQYLTTLQIVQFVLDLGFIYFCAYTYFAFTYFPWAPNVGKCAGTEGAALFGCGLLSSYLLLFINFYRITYNAKAKAAKERGSNFTPKTVKSGGSPKKPSKSKHI
With B2, the “increase of percent DGLA over 334(pYX242) (negative control)” value in data set [3] came out at 50.8%. Further, in data set [3] (FIG. 12), the “DGLA produced as a percent of the total lipids” value is given as 0.279% and the “amount of 20:3n-6 or DGLA produced relative to negative control pYX242” value is listed as “approximately 4 times”. In data set [4], the “percentage of 20:3n-6 in total lipid” value stood at 0.324% and the “total amount of 20:3n-6 produced” value was 2.504 µg. In data set [5], the AA production entry is “confirm the production of AA”. In data set [6] (individual clones of MAD708 pool, FIG. 20), the “conversion of GLA to DGLA” value was determined as 3.4%. The “conversion of GLA to DGLA” value in data set [6] (positive control in each batch run of library screening) is reported as 1.5%.
